Here are results for five molecules from US20210403541A1 (Merck Sharp & Dohme, published 2021).

B1: V5-AFM-hIgG4-S228P (antibody, V domains shown)
VH: EVQLVESGGGLVQPGGSLRLSCAASGFTFSSFALNWVRQAPGKGLEWVGHIRSKTNNYVTFYAASVKGRFTVSRDDSQNTAYLQMNSLKTEDTATYYCVRRGPRDSWFGYWGQGTLVTVSS
VL: DIVMTQSPLSLPVTLGEPASISCRSSQKIVHRNANTYLEWYLQKPGQSPQLLIYTVSNRFSGVPDRFSGSGSGTDFTLKISRVEAEDLGVYYCFQGSYLPLTFGGGTKVEIK
notes: also called V5-AFM-IgG4-S228P
B2: V8-AFM-hIgG1-LALA (antibody)
heavy: not shown
light: DIVMTQSPLSLPVTLGEPASISCRSSQKIVHRNANTYLEWYLQKPGQSPQLLIYTVSNRFSGVPDRFSGSGSGTDFTLKISRVEAEDLGVYYCFQGSYLPLTFGGGTKVEIKRTVAAPSVFIFPPSDEQLKSGTASVVCLLNNFYPREAKVQWKVDNALQSGNSQESVTEQDSKDSTYSLSSTLTLSKADYEKHKVYACEVTHQGLSSPVTKSFNRGEC
notes: Human IgG1 L234A L235A/kappa; also called V8-AFM-IgG1-LALA
B3: V8-AFM-hIgG4-S228P (antibody)
heavy: not shown
light: B2 light
notes: also called V8-AFM-IgG4-S228P
B4: V8-AFM-hIgG1-LALA-YTE (antibody)
heavy: EVQLVESGGGLVQPGGSLRLSCAASGFTFSSFALNWVRQAPGKGLEWVGHIRSETNNYVTFYAASVKGRFTVSRDDSQNTAYLQMNSLKTEDTATYYCVRRGPRDSWFGYWGQGTLVTVSSASTKGPSVFPLAPSSKSTSGGTAALGCLVKDYFPEPVTVSWNSGALTSGVHTFPAVLQSSGLYSLSSVVTVPSSSLGTQTYICNVNHKPSNTKVDKKVEPKSCDKTHTCPPCPAPEAAGGPSVFLFPPKPKDTLYITREPEVTCVVVDVSHEDPEVKFNWYVDGVEVHNAKTKPREEQYNSTYRVVSVLTVLHQDWLNGKEYKCKVSNKALPAPIEKTISKAKGQPREPQVYTLPPSRDELTKNQVSLTCLVKGFYPSDIAVEWESNGQPENNYKTTPPVLDSDGSFFLYSKLTVDKSRWQQGNVFSCSVMHEALHNHYTQKSLSLSPGK
light: B2 light
notes: Human IgG1 L234A L235A YTE/kappa; also called V8-AFM-IgG1-LALA-YTE
B5: HmzTa1505-hIgG4-S228P (antibody)
heavy: not shown
light: B2 light with K28N, R32S, Y98H

Positions count from the first letter of the chain named. In names and notes the source's numbering stands. Non-standard residues stand in square brackets, D forms with d. No end group written: not given here. pS = N[C@@H](COP(=O)(O)O)C(=O)O

One experiment addresses T1, pT212/pS214GC (69AXY) (human, phosphothreonine 212 and phosphoserine 214 of tau, printed GCGSPGTPGSRSR(pT)P(pS)LPTPPTREPK).
T1 construct: also called T-pT212pS214GC
T1 peptide: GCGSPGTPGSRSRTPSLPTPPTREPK
Description: peptide-coated ELISA (1 µg/ml peptide 69AXY coat, anti-human IgG-HRP, ABTS, OD405). On the procedure:
(§1) Binding specificity of the high affinity antibodies described herein was assessed with various tau peptides by a peptide-coated ELISA. Plates were coated with 50 μl of 1 μg/ml peptides 69AXY, 70AXY, 74AXY, 84AWK, 25AWF, or 24AWF in PBS for overnight at 4° C. On the next day, the plates were washed 3 times, blocked with 200 μl of superblock for 1 hr at room temperature, then washed 3 times again. Antibodies were diluted at 1:5 serial dilution in ELISA buffer starting from 10 μg/ml. The plates were incubated with 50 μl of serially diluted antibodies at room temperature for 1 hr and washed 3 times.
(In an ELISA, binding on a coated surface is turned into a signal by an enzyme label.)
In the case of B1, the binding result is listed as “no binding (tested: 10 µg/ml)”.

On to B2, for which the binding result is given as “no binding (tested: 10 µg/ml)”.

Regarding B3, the binding result was “no binding (tested: 10 µg/ml)”.

For the molecule B4, the binding result is “no binding (tested: 10 µg/ml)”.

The target in another experiment is cynomolgus monkey (cyno) FcRn (cynomolgus monkey, UniProt Q8SPV9 24-297; Q8SPW0 21-119, limits assumed). As to the kind of experiment: SPR (Biacore), antibody captured by anti-human kappa, FcRn injected, pH 6.0, steady-state fit; pH 6.0. The method, then: (§2) Anti-human kappa antibody was amine coupled to a CMS chip. Each antibody was captured to 200-300 RUs. Binding assays were performed using PBS running buffer containing 0.05% Tween-20, adjusted to either pH 6.0 or 7.4. Titration samples were also prepared using the corresponding pH buffer for the assay. Titrating concentrations (1200 nM top, 6-point, 3-fold dilution series and two zeros) of human or cyno FcRn were injected over the captured mAbs. Each sample injection was followed by two 30-second injections of 10 mM glycine, pH 1.5 and a 12-second injection of 10 mM NaOH to regenerate the surface for subsequent antibody capture and injection. All assays were run on Biacore T200 and/or 4000 instruments (GE Healthcare) and the data were fit to a steady-state approximation model using Biaevaluation software. Affinity at pH 6.0 was calculated as equivalent to concentration at half maximal binding signal in the steady-state approximation (TABLE 9).
A general note: SPR reads the build-up and loss of mass on a sensor chip optically.
For B2, the “Cyno FcRn fold change (relative to HmzTa1505-hIgG4-S228P)” value was 1.6 fold and the dissociation constant (Kd) worked out at 160 nM.

On to B3, for which the “Cyno FcRn fold change (relative to HmzTa1505-hIgG4-S228P)” value amounted to 1 fold and the Kd was found to be 260 nM.

For the molecule B5, the “Cyno FcRn fold change (relative to HmzTa1505-hIgG4-S228P)” value stood at 1 fold and the Kd turned out to be 260 nM.

For the molecule B4, the “Cyno FcRn fold change (relative to HmzTa1505-hIgG4-S228P)” value worked out at 11 fold and the Kd stood at 24 nM.

Another experiment deals with human FcRn (human, UniProt P55899 24-297; P61769 21-119, limits assumed). The experiment is described as above. The method, then:
as §2
As to B2, the “Human FcRn fold change (relative to HmzTa1505-hIgG4-S228P)” value came out at 1 fold and binding was put at a Kd of 230 nM.

On to B3, for which the “Human FcRn fold change (relative to HmzTa1505-hIgG4-S228P)” value was found to be 1 fold and the Kd is 210 nM.

Take B5: the “Human FcRn fold change (relative to HmzTa1505-hIgG4-S228P)” value turned out to be 1 fold and the Kd came out at 220 nM.

For B4, the “Human FcRn fold change (relative to HmzTa1505-hIgG4-S228P)” value is 6.5 fold and the Kd stood at 34 nM.

A further experiment deals with T2, tau species in brain homogenates from mutant tau mice (rTg(tauP301L)4510), sarkosyl insoluble tau seeds.
T2 construct: also called Tau mutant mice brain; SI Tau seeds
Description: competitive ELISA, tau mutant mice brain SI tau seeds (4 ng protein). The method, then: (§3) Binding affinities of various anti-tau-pS413 antibodies described herein for endogenous tau species were determined in brain homogenates and CSF samples from AD patients and preclinical models. Briefly, samples were pre-incubated with different concentrations of various anti-tau-pS413 antibodies, or respective isotype controls. Following a one-hour pre-incubation period, the antigen-antibody (Ag-Ab) mixture was added to plates pre-coated with a total tau capture antibody (Innotest ELISA kit).
Tissue homogenates were prepared using 1% sarkosyl buffer with several high-speed centrifugation steps to enrich for insoluble proteins including tau.
On to B5, for which the concentration giving a half-maximal response (EC50) was 0.67 nM.

Molecule B4 displayed an EC50 of 0.004 nM.

For another experiment, the target named is T3, tau species in CSF of African Green Monkeys (African Green Monkey).
T3 construct: also called Fresh African Green Monkey (AGM) CSF
As to the kind of experiment: competitive ELISA, fresh AGM CSF (75 µl of neat CSF). The method, then: as §3
In the case of B5, the midpoint of the response, the EC50, lay at 2.08 nM.

The molecule B4 displayed an EC50 of 0.008 nM.

The target of a further experiment is T4, phosphorylated tau protein monomer (35 AWM).
T4 construct: also called recombinant phosphorylated tau protein monomer
Description: competitive ELISA, phosphorylated tau protein monomer 35 AWM (1 ng).
B5: the EC50 came out at 6.73 nM.

Molecule B4 registered an EC50 of 0.055 nM.

The target in the next experiment is T5, pS396/400/404GC (84AWK) (human, phosphoserines at 396, 400 and 404 of tau, printed GCRENAKAKTDHGAEIVYK(pS)PVV(pS)GDT(pS)PRHL).
T5 construct: also called T-pS396/400/404GC
T5 peptide: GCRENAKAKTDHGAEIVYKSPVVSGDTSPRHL
Description: peptide-coated ELISA (1 µg/ml peptide 84AWK coat, anti-human IgG-HRP, ABTS, OD405). On the procedure: as §1
On to B1, for which the binding result is listed as “no binding (tested: 10 µg/ml)”.

Take B2: the binding result is reported as “no binding (tested: 10 µg/ml)”.

Consider B3, for which the binding result is listed as “no binding (tested: 10 µg/ml)”.

On to B4, for which the binding result is “no binding (tested: 10 µg/ml)”.

The target in another experiment is T6, pSer412Cys (74AXY) (human).
T6 peptide: NV[pS]STGSC
Description: peptide-coated ELISA (1 µg/ml peptide 74AXY coat, anti-human IgG-HRP, ABTS, OD405). The method, then:
as §1
Regarding B1, the binding result is “no binding (tested: 10 µg/ml)”.

With B2, the binding result is listed as “no binding (tested: 10 µg/ml)”.

For B3, the binding result is recorded as “no binding (tested: 10 µg/ml)”.

For B4, the binding result is on record as “no binding (tested: 10 µg/ml)”.

Broadly, the Kd is a measure of binding affinity in units of concentration. The term EC50 denotes the concentration needed to bring the measured effect to its halfway point.
